{"source": "patent US12397061B2", "about": "“Systems, methods, and compositions for the generation of water-soluble cannabinoids utilizing fatty-acid binding proteins and fatty-acid binding-like proteins as cannabinoid-carriers” (Trait Biosciences, Inc., priority 2019, dated 2025)", "key": {"cannabinoid receptor": {"test_system": "cannabinoid receptor", "details": "cited from earlier work"}, "[1]": {"test": "FABP binding to cannabinoids by ANS displacement (CBD as ligand)", "details": "for binding to CBD by ANS displacement: 2 uM protein, 20 uM ANS, 33 uM CBD, decrease in fluorescence vs protein without ligand"}, "[2]": {"test": "FABP binding to cannabinoids by ANS displacement (THC as ligand)", "details": "for binding to THC by ANS displacement: 2 uM protein, 20 uM ANS, 33 uM THC, decrease in fluorescence vs protein without ligand"}, "[3]": {"details": "listed as Wild type FABP from chicken"}}}
{"molecule": "C=C(C)[C@@H]1CCC(C)=C[C@H]1c1c(O)cc(CCCCC)cc1O", "note": "[CBD, cannabidiol]", "values": [{"measurement": "affinity for the cannabinoid receptor", "setting": "cannabinoid receptor", "value": "do not have significant affinity"}]}
{"molecule": "mdl_r5_1652_ro: Rosetta-engineered pig (Sus scrofa) FABP1 variant, SEQ ID NO. 81 (protein, listed as Sus scrofa) MNFSGKYQVQSQENFEAFMKAVGQPDELIQKGKDIKGTSEIVQNGKHFKVTITTGSKVVQAEFTLGEECEAETDTGEKVKVVVQLEGDNKAVVTAKGIKAVFELNGDIITATATLGDIVFKRISKR", "values": [{"measurement": "binding to CBD relative to the wild type based on relative change in fluorescence", "setting": "[1]; FIG. 7, ANS displacement", "value": "improved binding"}, {"measurement": "binding to THC relative to the wild type based on relative change in fluorescence", "setting": "[2]; FIG. 7, ANS displacement", "value": "improved binding"}]}
{"molecule": "Chicken FABP7 WT: Wild type chicken (Gallus gallus) FABP7, SEQ ID NO. 74 (protein, listed as Gallus gallus) MVEAFCATWKLADSHNFDEYMKALGVGFAMRQVGNVTKPTVIISSEGDKVVIRTQSTFKNTEISFKLGEEFDETTPDDRNCKSVVTLDGDKLVHVQKWDGKETNFVREIKDGRMVMTLTFGDVVAVRHYEKA", "values": [{"measurement": "binding to CBD by ANS displacement", "setting": "[1]", "value": "no, or negligible binding"}, {"measurement": "binding to CBD by ANS displacement", "setting": "[1]; [3]", "value": "no binding"}, {"measurement": "binding to THC by ANS displacement", "setting": "[2]", "value": "no, or negligible binding"}, {"measurement": "binding to THC by ANS displacement", "setting": "[2]; [3]", "value": "no binding"}]}
{"molecule": "mdl_r5_0225_ro: Engineered chicken (Gallus gallus) FABP7 variant selected by Rosetta score, SEQ ID NO. 79 (protein, listed as Gallus gallus) MVEAFCATWKLADSHNMDEALKAWGVGFAIRQVANVTKPTVIISSEGDKVVIRMQSTFKNTEISFKLGEEFDETTADDRNCKSVVTLDGDKLVHVQKWDGKETNVVREIKDGRMVMTVTFGDVVAVRHYEKA", "values": [{"measurement": "binding to CBD by ANS displacement", "setting": "[1]", "value": "binding to CBD"}, {"measurement": "binding to THC by ANS displacement", "setting": "[2]", "value": "not THC"}]}
{"molecule": "Plant FABP WT: Wild type FABP from the plant Rhodamnia argentea, SEQ ID NO. 77 (protein, listed as Rhodamnia argentea) MTEFAGVYEFVKDDGKFEEILKAMDVNFLIRKVAGKMNPNTAIDVLDDGKMAFKTITPLKTVEIHFELGKEYENKRLDGTVVKGIVTRDGNKLIQEQMSEPKFKVIRELDGPEKLIVTWMCKDIVCVREYKRIQT", "values": [{"measurement": "binding to CBD by ANS displacement", "setting": "[1]", "value": "bind"}, {"measurement": "binding to THC by ANS displacement", "setting": "[2]", "value": "bind"}]}
{"molecule": "mdl_r3_1403_sm: Engineered chicken (Gallus gallus) FABP7 variant selected by Smina score, SEQ ID NO. 80 (protein, listed as Gallus gallus) MVEAFCATWKLADSHNQDEGLKALGVGFAMRQLFNVDKPTVIISSEGDKVVIRIEGTVKNTEISFKLGEEFDETTADDRNCKSVVTLDGDKLVHVQKWDGKETNVVREIKDGRMVATFTFGDVVAVAHYEKA", "values": [{"measurement": "binding to CBD by ANS displacement", "setting": "[1]", "value": "no binding"}, {"measurement": "binding to THC by ANS displacement", "setting": "[2]", "value": "no binding"}]}
